Data set [1] deals with T1, EGFR (Homo sapiens, UniProt P00533).
T1 construct: A431 cells, which are known to express high levels of EGFR on their surface; host or cells: A431 cells
Description: Cell based (affinity) ELISA: binding of hTGFα to EGFR on A431 cells. The following applies: compared to wild type hTGFα. How it is done:
Binding activity of hTGFα to EGFR was also confirmed by cell based ELISA and FACS analysis using A431 cells, which are known to express high levels of EGFR on their surface. For the cell-based assay, A431 cells (ATCC#CRL1555) were seeded into the wells of a 96 well plate. A 1000 ng/ml solution of human TGFα (hTGFα) was serially diluted (two-fold dilutions), aliquots of each dilution added to the immobilized cells, and the plates incubated to allow binding. (FIG. 3A) After washing, bound hTGFα was detected using biotinylated anti-hTGFα (R&D Systems #BAF239) and Streptavidin conjugated with HRP. TMB was added to each well, the reactions stopped after four minutes, and the samples read as described above in paragraph a). (FIG. 3B) The standard curve was generated using Softmax. (FIG. 3C)
BAP060-hTGFα-B (mature hTGFα, aa 40-89, with PelB signal sequence) wild type and CPE™ mutants were transformed into E. coli BL21 (DE3) competent cells, and recombinant protein expression induced by addition of 1 mM IPTG at 37° C. for 3 hours in 96 well format (1st confirmation) or in 14 ml tubes (2nd confirmation). After three hours, the cells were collected and periplasmic proteins prepared by incubating the cells in OS buffer (200 mM Tris-HCl, pH 7.5, 20% sucrose, 1 mM EDTA) with DNAse, RNAse and lysozyme. After addition of lysis buffer (10 mM Tris, pH 7.5, 50 mM KCl, 1 mM EDTA and 0.1% of Na-deoxycholate) to the cells in OS buffer, the cells were centrifuged and the supernatants, which contained the periplasmic fractions, were transferred to microcentrifuge tubes. The concentration of hTGFα was determined by quantitation ELISA, and 25 ng/ml of hTGFα were incubated with A431 cells (ATCC#CRL1555) immobilized on the plate. Bound hTGFα was detected with biotinylated anti-hTGFα (R&D Systems, #BAF239) and Streptavidin conjugated with HRP. The reactions were stopped by addition of HCl after TMB was added to the wells and read immediately. OD450 nm value of the reactions was measured with a Molecular Device SPECTRAmax. The initial screen identified 94 CPE™ mutants that had 1.5 fold higher binding activity compared to the wild type TGFα in the primary screening. The sequences of these CPE™ mutants are shown below in Table 2, while select characteristics for all of the CPE™ mutants can be found in FIG. 11A.
A first confirmation was performed by re-transforming E. coli BL21 cells with plasmids containing the 94 CPE™ mutants, collected the periplasmic fractions after IPTG induction and performed quantitation ELISA and cell based ELISA. This first confirmation identified 37 CPE™ mutants having a higher binding activity compared to the wild type TGFα . The second confirmation identified 27 CPE™ putative hits that consistently had higher binding activity compared to the wild type TGFα. These 27 CPE™ mutants were then tested in a cell based EGFR phosphorylation assay to confirm the functional activity of the CPE™ mutants. (FIGS. 11B and 12B)
In addition, 15 CPS™ mutants (containing up to 5 mutations) having an increased ability to induce the phosphorylation of EGFR, relative to the wild type hTGFα (FIG. 14), were selected for cell based titration ELISA to confirm their binding activities (FIG. 15). Briefly, BAP060-hTGFα-B (mature hTGFα, aa 40-89, with PelB signal sequence) wild type and CPS™ mutants were transformed into E. coli BL21 (DE3) competent cells. Protein was expressed upon the addition of 1 mM IPTG at 37° C. for 3 hours in 96 well format. Cells were collected after induction and periplasmic proteins prepared by incubating the cells in OS buffer with DNAse, RNAse and lysozyme. Lysis buffer was added to the cells in OS buffer, the cells centrifuged, and the supernatants containing the periplasmic fractions transferred to a clean set of microcentrifuge tubes. Concentration of hTGFα in each sample was determined by quantitation ELISA. […]

The test system of a further data set is neuronal stem cell. The conditions noted are these: ICV or intrastriatal infusion over 18 days, rat brain; cited from earlier work.
Data set [2] has as its system central nervous system (CNS). The following applies: peripheral route, animal model of Parkinson's disease; cited from earlier work.
A short description of data set [3]: Physical characteristics of mutants (isoelectric point, hydrophobicity). It counts as physicochemical. The following applies: compared to wild type hTGFα.
For data set [4], the target named is T1, EGFR. Nature of the data set: Cell based EGFR phosphorylation assay in A431 cells. The following applies: compared to wild type hTGFα. As to the method: A cell based EGFR phosphorylation assay was set up to determine the binding activity of hTGFα to EGFR using a functional assay. A431 cells were seeded in 96 well formats and were serum starved overnight. The cells were washed in serum free media and incubated with 50 ul of 0, 50, 100 or 200 ng/ml of EGF (FIG. 5A, column 1) or hTGFα (FIG. 5A, column 2) in DMEM at 37° C. for 10 min: The cells were then washed with PBS and lysed. Half of the cell lysate were used to determine the level of total EGFR (FIG. 5C) using Cell Signaling kit #7250 and the other half of the cell lysate were used to determined the level of phosphorylated EGFR (FIG. 5B) using Cell Signaling kit #7240 following vendor's protocols.
EGFR phosphorylation. BAP060-hTGFα -B (mature hTGFα, aa 40-89, with PE1B signal sequence) was transformed into E. coli BL21 (DE3) competent cells. […] Half of the cell lysate were used to determine the level of total EGFR using Cell Signaling kit #7250 and the other half of the cell lysate were used to determined the level of phosphorylated EGFR using Cell Signaling kit #7240 following vendor's protocols.
E. coli BL21 cells were transformed with BAP060-hTGFα -B CPS™ mutants and induced with IPTG at 37° C. The periplasmic fractions after IPTG induction were collected and the expression levels of hTGFα determined by quantitation ELISA, as described above. […]

We go through eight substances from patent publication US20170305986A1, “NOVEL TGF-ALPHA MUTANT PROTEINS” (NEUROREPAIR, INC., priority 2014, published 2017).

For the substance “BAP060-Q014G: CPE™ single-substitution mutant of mature hTGFα”, in the data set with EGFR [1], the “Mutant Characteristics: affinity” value is “Increased affinity,”.
On to “TGF-α: member of the EGF family that binds the EGF receptor”, for which the “neuronal stem cell proliferation” value in the data set with neuronal stem cell is “induced neuronal stem cell proliferation”. In addition, in data set [2], the abnormal motor behavior entry was “ameliorates abnormal motor behavior” and the “neurogenesis of the central nervous system” value is “promotes neurogenesis of the central nervous system (CNS)”.
For “BAP060-A041D: CPE™ single-substitution mutant of mature hTGFα”, the “Mutant Characteristics: affinity” value with EGFR [1] is “Neutral affinity,”. Further, in data set [3], the “Mutant Characteristics: PI (isoelectric point)” value is recorded as “lower PI” and the “Mutant Characteristics: hydrophobicity” value is “decreased”.
With “BAP060-E027L: CPE™ single-substitution mutant of mature hTGFα”, the “Mutant Characteristics: affinity” value with EGFR [1] is “Neutral affinity,”.
As for “BAP060-F017L: CPE™ single-substitution mutant of mature hTGFα”, the “Mutant Characteristics: affinity” value with EGFR [1] was “Increased affinity,”. The “Mutant Characteristics: P-EGFR induction” value in the data set with EGFR [4] was “P-EGFR induction,”.
On to “BAP060-S036R: CPE™ single-substitution mutant of mature hTGFα”, for which, in the data set with EGFR [1], the “Mutant Characteristics: affinity” value is on record as “Increased affinity,”.
In the case of “BAP060-A046Y: CPE™ single-substitution mutant of mature hTGFα”, the “Mutant Characteristics: affinity” value with EGFR [1] was “Increased affinity,”.
For “BAP060-A050W: CPE™ single-substitution mutant of mature hTGFα”, in the data set with EGFR [1], the “Mutant Characteristics: affinity” value is reported as “Increased affinity,”.
